This note sets out measurements from patent US7655759 (VRIJE UNIVERSITEIT BRUSSEL, dated 2010).

The test has as its target tetanus toxoid (RIT, Smith Kline Beecham) (Clostridium tetani, UniProt P04958 2-1315). The test is described as follows: ELISA by the procedure of Friguet et al.

tetanus toxoid (RIT, Smith Kline Beecham), sequence (P04958 2-457 limits assumed, chain 1 of 2): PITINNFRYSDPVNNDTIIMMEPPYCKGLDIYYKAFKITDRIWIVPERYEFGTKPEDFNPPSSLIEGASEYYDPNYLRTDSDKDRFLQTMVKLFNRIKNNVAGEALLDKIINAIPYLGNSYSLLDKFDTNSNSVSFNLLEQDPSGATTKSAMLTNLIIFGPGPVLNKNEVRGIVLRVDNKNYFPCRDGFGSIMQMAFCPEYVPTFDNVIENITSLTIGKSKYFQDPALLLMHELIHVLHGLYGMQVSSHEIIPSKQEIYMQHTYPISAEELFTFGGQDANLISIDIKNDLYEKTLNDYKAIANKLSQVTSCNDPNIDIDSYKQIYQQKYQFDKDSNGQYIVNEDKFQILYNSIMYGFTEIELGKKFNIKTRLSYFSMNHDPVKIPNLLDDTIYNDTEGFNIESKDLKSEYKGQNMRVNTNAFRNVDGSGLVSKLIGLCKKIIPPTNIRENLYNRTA
tetanus toxoid (RIT, Smith Kline Beecham), sequence (P04958 458-1315 limits assumed, chain 2 of 2): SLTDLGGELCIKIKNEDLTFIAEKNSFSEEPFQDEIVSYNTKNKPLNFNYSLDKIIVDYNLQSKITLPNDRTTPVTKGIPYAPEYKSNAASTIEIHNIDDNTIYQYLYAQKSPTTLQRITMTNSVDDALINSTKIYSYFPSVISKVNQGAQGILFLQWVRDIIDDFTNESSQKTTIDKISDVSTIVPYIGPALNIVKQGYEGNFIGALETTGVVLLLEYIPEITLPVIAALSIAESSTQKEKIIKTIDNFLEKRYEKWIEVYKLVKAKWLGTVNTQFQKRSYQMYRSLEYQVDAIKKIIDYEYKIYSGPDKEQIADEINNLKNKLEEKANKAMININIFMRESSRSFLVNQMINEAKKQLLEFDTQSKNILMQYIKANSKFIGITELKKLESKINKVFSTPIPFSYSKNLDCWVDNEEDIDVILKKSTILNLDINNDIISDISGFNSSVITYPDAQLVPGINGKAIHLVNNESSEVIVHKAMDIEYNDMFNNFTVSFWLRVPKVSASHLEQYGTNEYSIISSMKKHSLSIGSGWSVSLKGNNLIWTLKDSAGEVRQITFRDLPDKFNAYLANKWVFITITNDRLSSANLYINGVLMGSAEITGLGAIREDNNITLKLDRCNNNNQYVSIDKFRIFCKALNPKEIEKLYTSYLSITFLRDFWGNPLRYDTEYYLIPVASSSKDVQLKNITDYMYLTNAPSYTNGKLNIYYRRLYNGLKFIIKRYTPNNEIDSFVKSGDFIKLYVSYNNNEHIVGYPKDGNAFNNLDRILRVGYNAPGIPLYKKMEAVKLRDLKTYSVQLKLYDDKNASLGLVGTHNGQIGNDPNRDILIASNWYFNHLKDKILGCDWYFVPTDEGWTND

B1: camel VHH αTT1 (anti-tetanus toxoid) (VHH)
VHH: EVQLQASGGGSVQAGGSLRLSCAASGGQTFDSYAMAWFRQAPGKECELVSSIIGDDNRNYADSVKGRFTISRDNAKNTVYLQMDRLNPEDTAVYYCAQLGSARSAMYCAGQGTQVTVSS
As for B1, the Ka turned out to be 6e+07 M⁻¹.

B2: camel VHH αTT2 (anti-tetanus toxoid) (VHH)
VHH: EVQLQASGGGSVQAGGSLRLSCTAANYAFDSKTVGWFRQVPGKEREGVAGISSGGSTTAYSDSVKGRYTVSLENAKNTVYLLIDNLQPEDTAIYYCAGVSGWRGRQWLLLAETYRFWGQGTQVTVSS
As to B2, the Ka was 2e+07 M⁻¹.
